Experimental data as given in the nanobody polyreactivity screen of Harvey et al. (2022).

Experiment: yeast display, Sf9 membrane polyspecificity reagent, FACS + sequencing; frameworks hold sequencing errors
Method in brief: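 Using colony PCR, genes from sorted yeast display clones were amplified, then sequenced on MiSeq at 2 × 250 and filtered by CDR length. The clones had been stained with 10% biotinylated, detergent-solubilized Sf9 membrane reagent for 1 hour at 4 °C and sorted by FACS into low and high (top ~1%) gates on anti-HA and streptavidin fluorescence. Polyreactivity labels come from the gate of origin.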

Sequence	polyreactivity (PSR sort gate)
QVQLVESGGGLVQAGGSLRLSCAASGSIFRSNAMGWYRQAPGQERELVAAISRSGGRTYYADSVKGRFTISRDNAKNTVYLQMNSLKPEDTAVYYCAAQVVRSLKYEYWGQGTQVTVSS	high polyreactivity
QVQLVESGGGLVQAGGSLRLSCAASGSIFRSNGMGWYREAPGKERELVAAITSSGGSTYYADTVKGRFTISRDNAKNTVYLHMNSLKPEDTAVYYCAKRWNWSYNYWGQGTQVTVSS	high polyreactivity
QVQLVESGGGLVQAGGSLRLSCAASGSIFRSYAMGWYRQAPGKEREFVAAISNGGRTSYADSVKGRFTISRDNAKYNVYLQMNSLKPEDTAVYDCNARYSRRAMGYWGQGTQVTVSS	high polyreactivity
QVQLVESGGGLVQAGGSLRLSCAASGSIFRSYAMGWYRQAPGKERELVAAIRGGGSTNYADSVKGRFTISRDNAKNTVYLQMNSLKPEDTAVYYFAADKKTKVDWGQGTQVTVSS	high polyreactivity
QVQLVESGGGLVQAGGSLRLSCAASGSIFRSYAMGWYRQAPGKERELVAAISRGGSTTYADSVKGRFTISRDNAKNTVYLQMNSLKPEDTAVYYCAVANVYYEGYDYWGQGTQVTVSS	low polyreactivity
QVQLVESGGGLVQAGGSLRLSCAASGSIFRSYAMGWYRQAPGKERELVAAISWRGGRTYYADSVKGRFTISRDNAKNTVYLQMNSLKPEDTAVYYCAVDFYVYRWSPYGDVYRYDYWGQGTQVTVSS	high polyreactivity
QVQLVESGGGLVQAGGSLRLSCAASGSIFRSYAMGWYRQAPGKERELVAAITSRGSSTYYADSVTGRFTISRDNAKNTVYLQMNSLKPEDSAVYYCATVFPYSARDGLDYWGQGTQVTVSS	high polyreactivity
QVQLVESGGGLVQAGGSLRLSCAASGSIFRSYAMGWYRQAPGKQREFVAAITGSGGRTYYADSVKGRFTISRDNAKNTVYLQMNCLKPEDTAVYYCAAALSRRYKSGGPYGFNYWGQGTQVTVSS	high polyreactivity
QVQLVESGGGLVQAGGSLRLSCAASGSIFRSYAMGWYRQAPGTERELVDGISYSGGSTYYADSVKGRFTISRDNAKNTVYLQMNSLKPEDTAVYYCNVDGGTYFFFVGAWGEYDYWGQGTQVTVSS	low polyreactivity
QVQLVESGGGLVQAGGSLRLSCAASGSIFRTNAMGWYRQAPGKERELVAAITGRGGSTYYADSVKGRFTISRNNAKNTVYLQMNSLKPEDTAVYDCAADTWYGYRYKYDYWGQGTQVTVSS	high polyreactivity
QVQLVESGGGLVQAGGSLRLSCAASGSIFRTNAMGWYRQAPGKERELVAAITTSGVTTYYADSVKGRFTISRDNPTNTVYLQMNSLKPEDTAVYYCNARDGRYLPRYDYWRQGTQVTVSS	low polyreactivity
QVQLVESGGGLVQAGGSLRLSCAASGSIFRTYAMGWYRQAPGKEREWVAAISSTGGRTYYADSVKGRFTISRDNAKNTVYLQMNSLKPEDTAVYYCAKRYRYITYRYDYWGQGTQVTVSS	high polyreactivity
QVQLVESGGGLVQAGGSLRLSCAASGSIFRTYAMGWYRQAPGKESELVAAISRSGSSTYYADSVKGRFTISRDNAKNTVYLQRTSLQPEDTAVYYCAAYWPLSYGARGSNYWGQGTQVTVSS	high polyreactivity
QVQLVESGGGLVQAGGSLRLSCAASGSIFRVNAMGWYRQAPGKERELVAAISCRGASTYYADSVKGRFTISRDNAKNTVYLQMNSLKPVDTAVYYCAAYGYSIGPYYYWGQGTQVTGSS	high polyreactivity
QVQLVESGGGLVQAGGSLRLSCAASGSIFRVNDMGWYRQAPGKERELVATISRSGAITYYADSVKGRFTISRDNAKNTVNLQMNSLKPEDNAVYYCAADFLSRDWGQGTQVTLSS	low polyreactivity
QVQLVESGGGLVQAGGSLRLSCAASGSIFRVYAMGWYRQAPGKERELVAAISRGGGTTYYADSVKGRFTISRDNAKNTVYLQMNRLKPEDTAVYYCASEYLGYYYQFDSWGQGTQVTVSS	high polyreactivity
QVQLVESGGGLVQAGGSLRLSCAASGSIFRVYAMGWYRQAPGKERELVAAITNGGNTNYADSVKGRFTISRDNAKNTVYLQMNSLKPEDTAVYYCAADPLRTPGARHTPYKGTYDYWGQGTQVTVSS	high polyreactivity
QVQLVESGGGLVQAGGSLRLSCAASGSIFRVYAMGWYRQAPGKERELVAGISSRGGTSTYYADSVKGRFTISRDNAKNSVYLQMNSLNPEETAVYYCAVQVRYPGYDYWGQGTQVTVSS	low polyreactivity
QVQLVESGGGLVQAGGSLRLSCAASGSIFRWNAMGWSRQAPGKERELVAAITWDGGRTYYADSVKGRFTISRDNAKNTVYLQMNSLKPEDTAVYYCNADNARGRSGVRRYYWGQGTQVTVSS	high polyreactivity
QVQLVESGGGLVQAGGSLRLSCAASGSIFRWNAMGWYRQAPGKEREFVAAISGRGGSTYYADSVKGRFTISRDNAKNTVYLQMNSLKPEDTAVYYCAADQAHLATRGFDYWGQGTQVTVSS	high polyreactivity
QVQLVESGGGLVQAGGSLRLSCAASGSIFRWYAMGWYRQAPGKERELVAAITGSGGRTYYADSVKGRFTISRDNAKNTVYLQMNSLNPEDTAVYYCATRYGREDYWGQGTQVTVSS	high polyreactivity
QVQLVESGGGLVQAGGSLRLSCAASGSIFRYAMGWYRQAPGKERELVATISESGGRTYYADSVKGRFTISRDNANNTVYLQMNSLKPEDTAVYYCAADLKYYYGYRPWFQGGYWGQGTQVTVSS	low polyreactivity

Sequence	polyreactivity (PSR sort gate)
QVQLVESGGGLVQAGGSLRLSCAASGSIFRYNAMGWYRQAPGKERELVAAISLNTGSTYYADSVKGRFTISRDNAKNTVYLQMNSLKPEDTAVYYCNADDYTYATYEYDYWGQGTQVTVSS	low polyreactivity
QVQLVESGGGLVQAGGSLRLSCAASGSIFRYNAMGWYRQAPGKERELVAAITWSGGSTYYADSVKGRFTISRDNAKNTVYLQMNSLKPEDTAVYYCAASPYPHYRRYTGGFYYWGQGTQVTVSS	high polyreactivity
QVQLVESGGGLVQAGGSLRLSCAASGSIFRYNAMGWYRQAPGKERELVAGISWSGGSTYYADSVKGRFTISRDNAKNTVYLQMNSLKPEDTAVYYCATRVGRYWTAGYYWGQGTQVTVSS	high polyreactivity
QVQLVESGGGLVQAGGSLRLSCAASGSIFRYNAMGWYRQAPGKERELVASINAGGGSTYYADSVKGRFTISRDNAKNTVYLLMNSLKPEDTAVYDCAAVAHSATRFRYYWRYDYWGQGTQVTVSS	high polyreactivity
QVQLVESGGGLVQAGGSLRLSCAASGSIFRYNTMGWYRQAPGKERELVASIRIGGSTFYADSVKGRFTISRDNAKNTVYLQMNSLKPEDTAVYYCAVRPYRSAGGSVTRGAYYYWGQGTQVTVSS	high polyreactivity
QVQLVESGGGLVQAGGSLRLSCAASGSIFRYYAMGWYIQAPGKERELVAVITRGGSTYYADSVKGRFTISRDNAKNTVYLQMNSLKPEDTAVYYCAADYWPAGLDRGYWGQGTQVTVSS	low polyreactivity
QVQLVESGGGLVQAGGSLRLSCAASGSIFRYYAMGWYRQAPGKERELVAAISIRGGRTYYADSVKGRFTISRDNAKNTVYLQMNSLKPEDTAVYYCATAFGFTAKYYYWGQGTQVTVSS	high polyreactivity
QVQLVESGGGLVQAGGSLRLSCAASGSIFRYYAMGWYRQAPGKERELVAAISQSGTSTYYADSVKGRFTISRDNAKNTVYLQMNSLKPEDTAVYYCAAYPYYDRDYWGQGTQVTVSS	low polyreactivity
QVQLVESGGGLVQAGGSLRLSCAASGSIFRYYAMGWYRQAPGKERELVAAISSRGGTTHYADSVKGRFTISRDNAKNTVYLQMNSLKPEDTAVYYCAADYYLATNPAPLAAGRGYWGQGTQVTVSS	high polyreactivity
QVQLVESGGGLVQAGGSLRLSCAASGSIFRYYAMGWYRQAPGKERELVAAISWDGGTTYYADSVKGRFTISRDNAKNTVYLQMNSLKPEDPAVYYCNVEFPLSSYGYDYWGQGTQVTVSS	low polyreactivity
QVQLVESGGGLVQAGGSLRLSCAASGSIFRYYAMGWYRQAPGKERELVAAISWSVGGTYYADSVKGRFTISRDNAKNTVYLQMNSLKPEDTAVYYCAADVLYTQYGYWGQGTQVTVSS	low polyreactivity
QVQLVESGGGLVQAGGSLRLSCAASGSIFRYYAMGWYRQAPGKERELVASINSGGSTYYADSVKGRFTISRDNAKNTVYLLMNSLKPEDTAVYYCAAETSYYYRGYWKSYDYWGQGTQVTVSS	high polyreactivity
QVQLVESGGGLVQAGGSLRLSCAASGSIFRYYAMGWYRQAPGKERELVASIRRGDSTYYADSVKGRFTISRDNAKNTVYLQMNSLKPEDTAVYYCAARFFWPQRGGYWGQGTQVTVSS	high polyreactivity
QVQLVESGGGLVQAGGSLRLSCAASGSIFRYYTMGWYRQAPGKERELVAAISWSGGSTYYADSVKGRFTISRDNAKNTVYLQMNSLKPEDTPVYYCNAVSFAYNPYSGTYDYRGQGTQVTVSS	high polyreactivity
QVQLVESGGGLVQAGGSLRLSCAASGSIFRYYVMGWYRQAPGKERELVAAISGGSTYYADSVKGRFTISRDNAKNTVYLQMNSLKPEDTAVYYCAAEQWSTGYYYWGQGTQVTVSS	high polyreactivity
QVQLVESGGGLVQAGGSLRLSCAASGSIFSANAMGWYRQAPGKERELVAAISSSGNTNYSDSVKWRFTISRDNAKNTFYLQMNSLKPEDTAVYYCAVELKQVTPGLGYITLDYWGQGTQVTVSS	low polyreactivity
QVQLVESGGGLVQAGGSLRLSCAASGSIFSANTMGWYRQAPGNEREFVAGITTSAGRTDYADSVKGRFTISRDNAKNTVYVQMNSLKPEDTAVYYCNADRRYYYHYRRYWYDYWGQGTQVTVSS	high polyreactivity
QVQLVESGGGLVQAGGSLRLSCAASGSIFSANVMGWYRQAPGTERELVAAIRRGGTTYYADSVKGRFTISRDNAKNTVYLQMNSLKPEDTAVYYCATDGIFGSYLRFEVAYDYWGQGTQVTVSS	low polyreactivity
QVQLVESGGGLVQAGGSLRLSCAASGSIFSAYAMGWYRQAPGKERELVAAISWRTGRTYYADSVKGRFTISRDNAKNTVYLQMNSLKPEDTAVYYCAVVLGVRPYDKHDYWGQGTQVTVSS	high polyreactivity
QVQLVESGGGLVQAGGSLRLSCAASGSIFSDNAMGWYRQAPGKERELVAAITWSGGSTYYADSVKGRFTISRDNAKNTVYLQMNSLKPEDTAVYYCAADGDYYWYYHGTYDYWGQGTQVTVSS	low polyreactivity
QVQLVESGGGLVQAGGSLRLSCAASGSIFSDNAMGWYRQAPGKERELVASITNSGSTNYADSVKGRFTISRDNAKNTVYLQMNSLKPEDTAVYYCAFSFLYTYDYWGQGTQVTVSS	low polyreactivity
